In the experiment the target is Recombinant PP35 gp156 tail spike protein (Dickeya bacteriophage PP35). The experiment is described as follows: SEC. In general terms: SEC sorts molecules by how far they enter the pores of the column.

The stoichiometry N is the number of molecules, sites or subunits per partner or assembly.

As to “Recombinant PP35 gp156 tail spike protein (natural protein)”, the stoichiometry N was 3.
